From patent US20220324997A1

Target: CD55 on healthy donor erythrocytes (human) (UniProt P08174)
Assay: flow cytometry on healthy donor erythrocytes, mAb at 10 µg/ml, positive control

Chain of UniProt P08174 (P08174 35-353): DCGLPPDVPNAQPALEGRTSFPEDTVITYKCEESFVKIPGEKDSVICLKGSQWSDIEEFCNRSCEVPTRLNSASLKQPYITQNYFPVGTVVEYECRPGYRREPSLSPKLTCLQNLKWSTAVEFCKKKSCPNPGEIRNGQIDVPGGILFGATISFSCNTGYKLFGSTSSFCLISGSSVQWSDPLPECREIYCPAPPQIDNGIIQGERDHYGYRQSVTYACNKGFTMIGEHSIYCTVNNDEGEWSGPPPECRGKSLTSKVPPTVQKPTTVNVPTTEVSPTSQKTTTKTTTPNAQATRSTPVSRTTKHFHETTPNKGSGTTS

Substance: 791T/36 (anti-CD55 mAb) (antibody)
- Gm (geometric mean fluorescence): 202
